Where no end group is shown, it is not given here. [ ]: non-standard residue; d: D form. The star is where a group is joined. Ala(3-Me-diazirin-3-yl) = CC1(C[C@H](N)C(=O)O)N=N1; Hexadecanesulfonyl = CCCCCCCCCCCCCCCCS(=O)(=O)*; 2Nal = N[C@@H](Cc1ccc2ccccc2c1)C(=O)O; Palmitoyl = CCCCCCCCCCCCCCCC(=O)*; Hyp = O=C(O)[C@@H]1C[C@@H](O)CN1; Cit = NC(=O)NCCC[C@H](N)C(=O)O; code z = not defined here; hSer = N[C@@H](CCO)C(=O)O; Nle = CCCC[C@H](N)C(=O)O; Pra = C#CC[C@H](N)C(=O)O; Dap = NC[C@H](N)C(=O)O
Target: CXCR4 receptor (human, UniProt P61073 1-352)
Assay: cell-based or functional assay

Chain of CXCR4 receptor (P61073 whole entry): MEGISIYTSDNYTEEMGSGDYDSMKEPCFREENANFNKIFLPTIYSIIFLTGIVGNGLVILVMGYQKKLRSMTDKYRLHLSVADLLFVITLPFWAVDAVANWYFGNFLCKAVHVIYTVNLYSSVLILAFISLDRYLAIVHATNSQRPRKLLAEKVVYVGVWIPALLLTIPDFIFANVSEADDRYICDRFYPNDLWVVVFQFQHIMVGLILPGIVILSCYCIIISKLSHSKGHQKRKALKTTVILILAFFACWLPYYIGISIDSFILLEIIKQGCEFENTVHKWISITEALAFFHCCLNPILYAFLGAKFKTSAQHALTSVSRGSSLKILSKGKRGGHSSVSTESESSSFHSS

| Binder | % Intrinsic Activity, calcium flux, CEM cells (Flexstation) [%] | EC50 (nM), calcium flux, CEM cells, agonist mode (Flexstation) [nM] | EC50 (nM), calcium flux, CEM cells, agonist mode (FLIPR) [nM] |
| --- | --- | --- | --- |
| Pal-GGYQKKLR[dP]HTDKYRL [Compound No. 26 (Pal-GGYQKKLRpHTDKYRL)] | 91.2 | 55.2 |  |
| Pal-MGYQKKLRSMTDK[2Nal]RL [Compound No. 16 (Pal-MGYQKKLRSMTDK(Nal)RL)] | 34.4 | 3020 |  |
| Pal-GGYQKK[Ala(3-Me-diazirin-3-yl)]RSATDKYRL [Compound No. 37 (Pal-GGYQKK(photoLeu)RSATDKYRL)] | 85.7 | 71.2 |  |
| Pal-GGYQKKLR[dP]ATDKYRL [Compound No. 27 (Pal-GGYQKKLRpATDKYRL)] | 111 | 85.9 |  |
| Palmitoyl-GGYQKKLRTATDKYRL (not fully specified) [Compound No. 41 (Pal-GGYQKKLRTATDKYRL)] | 149 | 106 |  |
| Palmitoyl-GGYQKKLRSATDKYRLH (not fully specified) [Compound No. 40 (Pal-GGYQKKLRSATDKYRLH)] | 78.7 | 297 |  |
| Palmitoyl-GGYQKKLRSATDKYRL (not fully specified (C-terminus)) [Compound No. 25 (Pal-GGYQKKLRSATDKYRL)] | 89.4 | 36.8 |  |
| Palmitoyl-MGYQKPLRSMTDKYRL [Compound No. 6 (Pal-MGYQKPLRSMTDKYRL)] | 90.2 | 161 |  |
| Pal-GGYQKKLR[dP]ATDKFRL [Compound No. 29 (Pal-GGYQKKLRpATDKFRL)] | 88.9 | 26.3 |  |
| Pal-GGYQKKLR[Hyp]HTDKYRL [Compound No. 35 (Pal-GGYQKKLR(Hyp)HTDKYRL)] | 89.4 | 45 |  |
| Pal-MGYQKKLRS[Nle]TDKYRL [Compound No. 17 (Pal-MGYQKKLRS(Nle)TDKYRL)] | 62.7 | 208 |  |
| Pal-[hSer]GYQKKLRS[hSer]TDKYRL [Compound No. 22 (Pal-xGYQKKLRSxTDKYRL)] | 77.7 | 125 |  |
| Palmitoyl-MGYQKKLRSHTDKYRL (not fully specified) [Compound No. 18 (Pal-MGYQKKLRSHTDKYRL)] | 93.4 | 110 |  |
| Pal-MGYQKKLRS[dP]MTDKYRL [Compound No. 9 (Pal-MGYQKKLRSpMTDKYRL)] | 77.9 | 123 |  |
| Palmitoyl-MGYQKKLRSMTDKFRL (not fully specified) [Compound No. 15 (Pal-MGYQKKLRSMTDKFRL)] | 81.5 | 135 |  |
| Pal-GGYQKKLR[dP][dP]HTDKYRL [Compound No. 32 (Pal-GGYQKKLRppHTDKYRL)] | 91.1 | 73.2 |  |
| Palmitoyl-MGYQKKLRPSMTDKYRL (not fully specified) [Compound No. 8 (Pal-MGYQKKLRPSMTDKYRL)] | 88 | 169 |  |

| Binder | % Intrinsic Activity, calcium flux, CEM cells (Flexstation) [%] | EC50 (nM), calcium flux, CEM cells, agonist mode (Flexstation) [nM] | EC50 (nM), calcium flux, CEM cells, agonist mode (FLIPR) [nM] |
| --- | --- | --- | --- |
| Hexadecanesulfonyl-GGYQKKLR[dP]HTDKYRL-NH2 (also: table lists the lipid as 'Pal') [Compound No. 46 (CH3(CH2)15SO2-GGYQKKLRpHTDKYRL-amide)] |  |  | 12.5 |
| Palmitoyl-MGYQKKLRSMTDKYRV (not fully specified) [Compound No. 11 (Pal-MGYQKKLRSMTDKYRV)] | 61.7 | 1320 |  |
| Palmitoyl-MGYQKKLRSMTDKYKL (not fully specified) [Compound No. 13 (Pal-MGYQKKLRSMTDKYKL)] | 61.4 | 194 |  |
| Pal-GGYQKKLR[dP][Hyp]TDKYRL [Compound No. 36 (Pal-GGYQKKLRp(Hyp)TDKYRL)] | 55.2 | 603 |  |
| Palmitoyl-CGYQKKLRSATDKYRL (not fully specified) [Compound No. 30 (Pal-CGYQKKLRSATDKYRL)] | 95.3 | 144 |  |
| Palmitoyl-MGYQKKLRSGTDKYRL (not fully specified) [Compound No. 19 (Pal-MGYQKKLRSGTDKYRL)] | 101 | 370 |  |
| Pal-GGYQKKLR[dP]WTDKYRL [Compound No. 33 (Pal-GGYQKKLRpWTDKYRL)] | 93 | 109 |  |
| Pal-[code z]GYQKKLRS[code z]TDKYRL (not fully specified; printed as Pal-zGYQKKLRSzTDKYRL; reading uncertain) [Compound No. 23 (Pal-zGYQKKLRSzTDKYRL)] | 87.2 | 83 |  |
| Pal-GGYQKKLR[dP][Dap]TDKYRL [Compound No. 34 (Pal-GGYQKKLRp(Dpr)TDKYRL)] | 103 | 89 |  |
| Pal-GYQKKLRS[Nle]TDKYRI [Compound No. 20 (Pal-GYQKKLRS(Nle)TDKYRI)] | 62.5 | 232 |  |
| Pal-MGYQKKLRSMTDKYR[Nle] [Compound No. 12 (Pal-MGYQKKLRSMTDKYR(Nle))] | 73.2 | 249 |  |
| {3‑(dodecyloxy)propanoate}-GGYQKKLRSATDKYRL (not fully specified (C-terminus)) [Compound No. 31 (3-(dodecyloxy)propanoate-GGYQKKLRSATDKYRL)] | 84.2 | 154 |  |
| Pal-GGYQKK[dP]R[dP]ATDKYRL [Compound No. 28 (Pal-GGYQKKpRpATDKYRL)] | 107 | 25 |  |
| Palmitoyl-GGYQKKHRSATDKYRL (not fully specified) [Compound No. 38 (Pal-GGYQKKHRSATDKYRL)] | 86.8 | 27 |  |
| Pal-[Pra]GYQKKLRSMTDKYRL [Compound No. 24 (Pal-(Pra)GYQKKLRSMTDKYRL)] | 76.6 | 267 |  |
| Pal-MGYQKKLRSMTDKY[Cit]L [Compound No. 14 (Pal-MGYQKKLRSMTDKY(Cit)L)] | 3.61 | 10000 |  |
| Palmitoyl-MGYQKKLPRSMTDKYRL (not fully specified) [Compound No. 7 (Pal-MGYQKKLPRSMTDKYRL)] | 100 | 153 |  |

From US20130005944A1 (ANCHOR THERAPEUTICS, published 2013)
